T1: human FcγRIIB (human, UniProt P31994 43-310)
T1 construct: whole, on cells; also called CD32b; FcγR2B
T1 sequence (looked up): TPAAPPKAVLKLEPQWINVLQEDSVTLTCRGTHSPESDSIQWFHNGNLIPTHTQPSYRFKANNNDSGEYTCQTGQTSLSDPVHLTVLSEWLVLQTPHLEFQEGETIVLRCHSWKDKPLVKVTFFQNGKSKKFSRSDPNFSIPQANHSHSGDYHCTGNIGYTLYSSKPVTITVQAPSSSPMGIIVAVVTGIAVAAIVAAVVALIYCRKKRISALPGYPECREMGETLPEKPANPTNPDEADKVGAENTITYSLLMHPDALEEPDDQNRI


Key:
human FcγRIIB = target: T1, human FcγRIIB; assay: FACS on CHO cells expressing human FcγRIIB (MFI)
Experimental: (§1) For FACS analysis of the IgG mutants' binding to different FcγRs, FcγR overexpressing CHO cells were harvested using trypsin-EDTA and were suspended in cold staining buffer (3% BSA in PBS). Test IgG mutants, which were diluted in staining buffer, were added into the cells. The mixture was incubated at 4° C. for 2 hours, and then washed twice with cold staining buffer and re-suspended in PE-labeled anti-human IgG followed by incubation at 4° C. for 2 hours. The mixture was washed twice with staining buffer and re-suspended in 2% PFA in PBS for FACS.

human FcγRI = target: T2, human FcγRI (human, UniProt P12314 16-374); assay: FACS on CHO cells expressing human FcγRI (MFI)
T2 construct: whole, on cells; also called CD64
Experimental: as §1

human FcγRIII = target: T3, human FcγRIII (human, UniProt P08637 17-254); assay: FACS on CHO cells expressing human FcγRIIIA (MFI)
T3 construct: whole, on cells; also called FcγRIIIA; CD16a
Experimental: as §1

T3 sequence (P08637 17-254): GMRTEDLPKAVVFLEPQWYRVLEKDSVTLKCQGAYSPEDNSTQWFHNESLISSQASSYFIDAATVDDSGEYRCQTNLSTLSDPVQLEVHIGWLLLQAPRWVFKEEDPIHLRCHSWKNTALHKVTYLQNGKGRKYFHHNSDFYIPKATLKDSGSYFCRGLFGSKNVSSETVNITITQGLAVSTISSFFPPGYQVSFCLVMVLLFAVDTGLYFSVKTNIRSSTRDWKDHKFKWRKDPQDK
T2 sequence (P12314 16-374): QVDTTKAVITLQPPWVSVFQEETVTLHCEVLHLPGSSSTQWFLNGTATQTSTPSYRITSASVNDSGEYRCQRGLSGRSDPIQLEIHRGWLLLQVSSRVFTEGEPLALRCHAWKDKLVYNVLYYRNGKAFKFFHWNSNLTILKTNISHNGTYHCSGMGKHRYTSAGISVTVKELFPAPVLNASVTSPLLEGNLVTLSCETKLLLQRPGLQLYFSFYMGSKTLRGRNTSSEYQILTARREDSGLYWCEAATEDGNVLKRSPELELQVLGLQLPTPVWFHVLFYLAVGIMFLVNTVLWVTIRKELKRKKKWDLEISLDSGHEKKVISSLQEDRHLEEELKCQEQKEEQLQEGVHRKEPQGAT

Binder	binding result (human FcγRIIB)	binding result (human FcγRI)	binding result (human FcγRIII)
383-huIgG1m2 (antibody, also called 383-G1m2) heavy: not shown light: DIQMTQSPSSVSASVGDRVTITCRASQGIYSWLAWYQQKPGKAPNLLIYTASTLQSGVPSRFSGSGSGTDFTLTISSLQPEDFATYYCQQANIFPLTFGGGTKVEIKRTVAAPSVFIFPPSDEQLKSGTASVVCLLNNFYPREAKVQWKVDNALQSGNSQESVTEQDSKDSTYSLSSTLTLSKADYEKHKVYACEVTHQGLSSPVTKSFNRGEC	binds		
383-huIgG2m19 (antibody) heavy: not shown light: DIQMTQSPSSVSASVGDRVTITCRASQGIYSWLAWYQQKPGKAPNLLIYTASTLQSGVPSRFSGSGSGTDFTLTISSLQPEDFATYYCQQANIFPLTFGGGTKVEIKRTVAAPSVFIFPPSDEQLKSGTASVVCLLNNFYPREAKVQWKVDNALQSGNSQESVTEQDSKDSTYSLSSTLTLSKADYEKHKVYACEVTHQGLSSPVTKSFNRGEC	binds	no binding (tested: 30 µg/mL)	no binding (tested: 30 µg/mL)
383-huIgG1 (antibody, anti-CD40 antibody 383 on a wild-type human IgG1 constant region) heavy chain: not shown light chain: DIQMTQSPSSVSASVGDRVTITCRASQGIYSWLAWYQQKPGKAPNLLIYTASTLQSGVPSRFSGSGSGTDFTLTISSLQPEDFATYYCQQANIFPLTFGGGTKVEIKRTVAAPSVFIFPPSDEQLKSGTASVVCLLNNFYPREAKVQWKVDNALQSGNSQESVTEQDSKDSTYSLSSTLTLSKADYEKHKVYACEVTHQGLSSPVTKSFNRGEC	binds	binds	
383-huIgG4mAA (antibody) heavy: not shown light: DIQMTQSPSSVSASVGDRVTITCRASQGIYSWLAWYQQKPGKAPNLLIYTASTLQSGVPSRFSGSGSGTDFTLTISSLQPEDFATYYCQQANIFPLTFGGGTKVEIKRTVAAPSVFIFPPSDEQLKSGTASVVCLLNNFYPREAKVQWKVDNALQSGNSQESVTEQDSKDSTYSLSSTLTLSKADYEKHKVYACEVTHQGLSSPVTKSFNRGEC	binds	binds	
383-huIgG4m2 (antibody) heavy: not shown light: DIQMTQSPSSVSASVGDRVTITCRASQGIYSWLAWYQQKPGKAPNLLIYTASTLQSGVPSRFSGSGSGTDFTLTISSLQPEDFATYYCQQANIFPLTFGGGTKVEIKRTVAAPSVFIFPPSDEQLKSGTASVVCLLNNFYPREAKVQWKVDNALQSGNSQESVTEQDSKDSTYSLSSTLTLSKADYEKHKVYACEVTHQGLSSPVTKSFNRGEC	binds		no binding (tested: 30 µg/mL)
383-huIgG1m240 (antibody) heavy: not shown light: DIQMTQSPSSVSASVGDRVTITCRASQGIYSWLAWYQQKPGKAPNLLIYTASTLQSGVPSRFSGSGSGTDFTLTISSLQPEDFATYYCQQANIFPLTFGGGTKVEIKRTVAAPSVFIFPPSDEQLKSGTASVVCLLNNFYPREAKVQWKVDNALQSGNSQESVTEQDSKDSTYSLSSTLTLSKADYEKHKVYACEVTHQGLSSPVTKSFNRGEC		no binding (tested: 30 µg/mL)	
383-huIgG4m40 (antibody) heavy: not shown light: DIQMTQSPSSVSASVGDRVTITCRASQGIYSWLAWYQQKPGKAPNLLIYTASTLQSGVPSRFSGSGSGTDFTLTISSLQPEDFATYYCQQANIFPLTFGGGTKVEIKRTVAAPSVFIFPPSDEQLKSGTASVVCLLNNFYPREAKVQWKVDNALQSGNSQESVTEQDSKDSTYSLSSTLTLSKADYEKHKVYACEVTHQGLSSPVTKSFNRGEC	no binding (tested: 30 µg/mL)		no binding (tested: 30 µg/mL)
383-huIgG1m50 (antibody) heavy: not shown light: DIQMTQSPSSVSASVGDRVTITCRASQGIYSWLAWYQQKPGKAPNLLIYTASTLQSGVPSRFSGSGSGTDFTLTISSLQPEDFATYYCQQANIFPLTFGGGTKVEIKRTVAAPSVFIFPPSDEQLKSGTASVVCLLNNFYPREAKVQWKVDNALQSGNSQESVTEQDSKDSTYSLSSTLTLSKADYEKHKVYACEVTHQGLSSPVTKSFNRGEC	binds	binds	
383-huIgG4mPE (antibody) heavy: not shown light: DIQMTQSPSSVSASVGDRVTITCRASQGIYSWLAWYQQKPGKAPNLLIYTASTLQSGVPSRFSGSGSGTDFTLTISSLQPEDFATYYCQQANIFPLTFGGGTKVEIKRTVAAPSVFIFPPSDEQLKSGTASVVCLLNNFYPREAKVQWKVDNALQSGNSQESVTEQDSKDSTYSLSSTLTLSKADYEKHKVYACEVTHQGLSSPVTKSFNRGEC	binds	binds	
383-huIgG1m49 (antibody) heavy: not shown light: DIQMTQSPSSVSASVGDRVTITCRASQGIYSWLAWYQQKPGKAPNLLIYTASTLQSGVPSRFSGSGSGTDFTLTISSLQPEDFATYYCQQANIFPLTFGGGTKVEIKRTVAAPSVFIFPPSDEQLKSGTASVVCLLNNFYPREAKVQWKVDNALQSGNSQESVTEQDSKDSTYSLSSTLTLSKADYEKHKVYACEVTHQGLSSPVTKSFNRGEC	binds	binds	
383-huIgG1m27 (antibody) heavy: not shown light: DIQMTQSPSSVSASVGDRVTITCRASQGIYSWLAWYQQKPGKAPNLLIYTASTLQSGVPSRFSGSGSGTDFTLTISSLQPEDFATYYCQQANIFPLTFGGGTKVEIKRTVAAPSVFIFPPSDEQLKSGTASVVCLLNNFYPREAKVQWKVDNALQSGNSQESVTEQDSKDSTYSLSSTLTLSKADYEKHKVYACEVTHQGLSSPVTKSFNRGEC	binds		
383-huIgG1m47 (antibody) heavy: not shown light: DIQMTQSPSSVSASVGDRVTITCRASQGIYSWLAWYQQKPGKAPNLLIYTASTLQSGVPSRFSGSGSGTDFTLTISSLQPEDFATYYCQQANIFPLTFGGGTKVEIKRTVAAPSVFIFPPSDEQLKSGTASVVCLLNNFYPREAKVQWKVDNALQSGNSQESVTEQDSKDSTYSLSSTLTLSKADYEKHKVYACEVTHQGLSSPVTKSFNRGEC	binds	no binding (tested: 30 µg/mL)	
383-huIgG2m2040 (antibody) heavy: not shown light: DIQMTQSPSSVSASVGDRVTITCRASQGIYSWLAWYQQKPGKAPNLLIYTASTLQSGVPSRFSGSGSGTDFTLTISSLQPEDFATYYCQQANIFPLTFGGGTKVEIKRTVAAPSVFIFPPSDEQLKSGTASVVCLLNNFYPREAKVQWKVDNALQSGNSQESVTEQDSKDSTYSLSSTLTLSKADYEKHKVYACEVTHQGLSSPVTKSFNRGEC		no binding (tested: 30 µg/mL)	no binding (tested: 30 µg/mL)
383-huIgG2m43 (antibody) heavy: not shown light: DIQMTQSPSSVSASVGDRVTITCRASQGIYSWLAWYQQKPGKAPNLLIYTASTLQSGVPSRFSGSGSGTDFTLTISSLQPEDFATYYCQQANIFPLTFGGGTKVEIKRTVAAPSVFIFPPSDEQLKSGTASVVCLLNNFYPREAKVQWKVDNALQSGNSQESVTEQDSKDSTYSLSSTLTLSKADYEKHKVYACEVTHQGLSSPVTKSFNRGEC		no binding (tested: 30 µg/mL)	no binding (tested: 30 µg/mL)
383-huIgG4m46 (antibody) heavy: not shown light: DIQMTQSPSSVSASVGDRVTITCRASQGIYSWLAWYQQKPGKAPNLLIYTASTLQSGVPSRFSGSGSGTDFTLTISSLQPEDFATYYCQQANIFPLTFGGGTKVEIKRTVAAPSVFIFPPSDEQLKSGTASVVCLLNNFYPREAKVQWKVDNALQSGNSQESVTEQDSKDSTYSLSSTLTLSKADYEKHKVYACEVTHQGLSSPVTKSFNRGEC	binds		no binding (tested: 30 µg/mL)
383-huIgG1mAAG (antibody, Anti-CD40 antibody 383 with Fc variant G1mAAG; also called G1mAG) heavy: not shown light: DIQMTQSPSSVSASVGDRVTITCRASQGIYSWLAWYQQKPGKAPNLLIYTASTLQSGVPSRFSGSGSGTDFTLTISSLQPEDFATYYCQQANIFPLTFGGGTKVEIKRTVAAPSVFIFPPSDEQLKSGTASVVCLLNNFYPREAKVQWKVDNALQSGNSQESVTEQDSKDSTYSLSSTLTLSKADYEKHKVYACEVTHQGLSSPVTKSFNRGEC	no binding (tested: 30 µg/mL)		no binding (tested: 30 µg/mL)
383-huIgG4m30 (antibody) heavy: not shown light: DIQMTQSPSSVSASVGDRVTITCRASQGIYSWLAWYQQKPGKAPNLLIYTASTLQSGVPSRFSGSGSGTDFTLTISSLQPEDFATYYCQQANIFPLTFGGGTKVEIKRTVAAPSVFIFPPSDEQLKSGTASVVCLLNNFYPREAKVQWKVDNALQSGNSQESVTEQDSKDSTYSLSSTLTLSKADYEKHKVYACEVTHQGLSSPVTKSFNRGEC		no binding (tested: 30 µg/mL)	no binding (tested: 30 µg/mL)
383-huIgG1m45 (antibody) heavy: not shown light: DIQMTQSPSSVSASVGDRVTITCRASQGIYSWLAWYQQKPGKAPNLLIYTASTLQSGVPSRFSGSGSGTDFTLTISSLQPEDFATYYCQQANIFPLTFGGGTKVEIKRTVAAPSVFIFPPSDEQLKSGTASVVCLLNNFYPREAKVQWKVDNALQSGNSQESVTEQDSKDSTYSLSSTLTLSKADYEKHKVYACEVTHQGLSSPVTKSFNRGEC	binds	no binding (tested: 30 µg/mL)	
